T1: human fibrinogen (human, UniProt P02671 20-644; P02675 31-491; P02679 27-437)
T1 construct: Amine-coupled to a CM5 chip
T1 sequence 1: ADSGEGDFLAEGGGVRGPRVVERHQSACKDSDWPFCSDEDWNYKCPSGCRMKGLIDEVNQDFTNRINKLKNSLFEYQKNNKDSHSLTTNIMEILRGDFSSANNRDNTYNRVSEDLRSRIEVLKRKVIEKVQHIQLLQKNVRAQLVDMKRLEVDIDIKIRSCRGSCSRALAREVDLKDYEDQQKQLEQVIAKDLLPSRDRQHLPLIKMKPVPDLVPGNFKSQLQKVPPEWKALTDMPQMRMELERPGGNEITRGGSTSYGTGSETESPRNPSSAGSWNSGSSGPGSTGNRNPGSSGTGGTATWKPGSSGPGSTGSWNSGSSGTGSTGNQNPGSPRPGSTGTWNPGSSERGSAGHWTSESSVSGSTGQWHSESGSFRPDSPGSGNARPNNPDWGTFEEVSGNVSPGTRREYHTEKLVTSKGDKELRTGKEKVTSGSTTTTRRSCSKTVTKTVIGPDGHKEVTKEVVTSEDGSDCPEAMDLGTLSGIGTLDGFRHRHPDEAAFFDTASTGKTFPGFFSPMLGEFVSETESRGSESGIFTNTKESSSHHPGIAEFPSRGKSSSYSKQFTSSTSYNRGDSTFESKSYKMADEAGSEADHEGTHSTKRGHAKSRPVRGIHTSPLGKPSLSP
T1 sequence 2: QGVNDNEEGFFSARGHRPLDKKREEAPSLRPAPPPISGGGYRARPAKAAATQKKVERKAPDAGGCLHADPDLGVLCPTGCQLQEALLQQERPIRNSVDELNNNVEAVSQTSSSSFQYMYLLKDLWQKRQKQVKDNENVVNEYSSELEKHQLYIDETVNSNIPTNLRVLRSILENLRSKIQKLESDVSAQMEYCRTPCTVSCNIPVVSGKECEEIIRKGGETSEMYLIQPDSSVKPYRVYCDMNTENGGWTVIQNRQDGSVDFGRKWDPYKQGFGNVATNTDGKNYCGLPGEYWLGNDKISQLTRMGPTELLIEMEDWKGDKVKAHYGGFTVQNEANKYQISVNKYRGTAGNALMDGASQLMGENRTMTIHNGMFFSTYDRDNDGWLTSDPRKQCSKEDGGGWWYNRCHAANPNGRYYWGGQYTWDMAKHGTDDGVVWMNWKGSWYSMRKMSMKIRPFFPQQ
T1 sequence 3: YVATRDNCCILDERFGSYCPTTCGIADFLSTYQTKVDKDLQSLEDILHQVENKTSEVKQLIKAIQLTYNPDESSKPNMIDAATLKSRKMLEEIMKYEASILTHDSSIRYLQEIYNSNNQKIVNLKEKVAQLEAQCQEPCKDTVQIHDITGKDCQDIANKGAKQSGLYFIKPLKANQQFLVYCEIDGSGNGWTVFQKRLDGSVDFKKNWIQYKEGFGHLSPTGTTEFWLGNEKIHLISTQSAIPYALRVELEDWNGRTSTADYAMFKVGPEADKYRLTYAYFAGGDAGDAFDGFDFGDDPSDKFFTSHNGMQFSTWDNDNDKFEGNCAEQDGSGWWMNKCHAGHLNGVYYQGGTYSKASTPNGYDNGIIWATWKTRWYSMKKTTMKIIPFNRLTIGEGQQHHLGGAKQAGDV

B1: coagulase (Coa), recombinant mature protein with the His6 tag removed by Factor Xa (other)
chain: IVTKDYSGKSQVNAGSKNGTLIDSRYLNSALYYLEDYIIYAIGLTNKYEYGDNIYKEAKDRLLEKVLREDQYLLERKKSQYEDYKQWYANYKKENPRTDLKMANFHKYNLEELSMKEYNELQDALKRALDDFHREVKDIKDKNSDLKTFNAAEEDKATKEVYDLVSEIDTLVVSYYGDKDYGEHAKELRAKLDLILGDTDNPHKITNERIKKEMIDDLNSIIDDFFMETKQNRPKSITKYNPTTHNYKTNSDNKPNFDKLVEETKKAVKEADDSWKKKTVKKYGETETKSPVVKEEKKVEEPQAPKVDNQQEVKTTAGKAEETTQPVAQPLVKIPQGTITGEIVKGPEYPTMENKTVQGEIVQGPDFLTMEQSGPSLSNNYTNPPLTNPILEGLEGSSSKLEIKPQGTESTLKGTQGESSDIEVKPQATETTEASQYGPRPQFNKTPKYVKYRDAGTGIREYNDGTFGYEARPRFNKPSETNAYNVTTHANGQVSYGARPTYKKPSETNAYNVTTHANGQVSYGARPTQNKPSKTNAYNVTTHGNGQVSYGARPTQNKPSKTNAYNVTTHANGQVSYGARPTYKKPSKTNAYNVTTHADGTATYGPRVTK
notes: also called functionally active Coa
B2: von Willebrand factor binding protein (vWbp), recombinant mature protein with the His6 tag removed by Factor Xa (other)
chain: VVSGEKNPYVSESLKLTNNKNKSRTVEEYKKSLDDLIWSFPNLDNERFDNPEYKEAMKKYQQRFMAEDEALKKFFSEEKKIKNGNTDNLDYLGLSHERYESVFNTLKKQSEEFLKEIEDIKKDNPELKDFNEEEQLKCDLELNKLENQILMLGKTFYQNYRDDVESLYSKLDLIMGYKDEERANKKAVNKRMLENKKEDLETIIDEFFSDIDKTRPNNIPVLEDEKQEEKNHKNMAQLKSDTEAAKSDESKRSKRSKRSLNTQNHKPASQEVSEQQKAEYDKRAEERKARFLDNQKIKKTPVVSLEYDFEHKQRIDNENDKKLVVSAPTKKPTSPTTYTETTTQVPMPTVERQTQQQIIYNAPKQLAGLNGESHDFTTTHQSPTTSNHTHNNVVEFEETSALPGRKSGSLVGISQIDSSHLTEREKRVIKREHVREAQKLVDNYKDTHSYKDRINAQQKVNTLSEGHQKRFNKQINKVYNGK
notes: also called functionally active vWbp

Assays:
human fibrinogen [1] = target: T1, human fibrinogen; assay: SPR (BIAcore 3000), human fibrinogen amine-coupled to CM5 chip, Coa injected, 1:1 model
human prothrombin [2] = target: T2, human prothrombin (human, UniProt P00734 44-622); assay: SPR (BIAcore 3000), human prothrombin amine-coupled to CM5 chip, Coa injected at 0-75 nM, 1:1 model
T2 construct: Amine-coupled to a CM5 chip

human fibrinogen [3] = target: T1, human fibrinogen; assay: SPR (BIAcore 3000), human fibrinogen amine-coupled to CM5 chip, vWbp injected, 1:1 model; target fibrinogen
human prothrombin [4] = target: T2, human prothrombin; assay: SPR (BIAcore 3000), human prothrombin amine-coupled to CM5 chip, vWbp injected, 1:1 model; target prothrombin

Binder	Kd (human fibrinogen [1]) [nM]	Kd (human prothrombin [2]) [nM]	Kd (human fibrinogen [3]) [nM]	Kd (human prothrombin [4]) [nM]
B1	93.1	28	–	–
B2	–	–	484	38.4

From patent US9567379 (UNIVERSITY OF CHICAGO, dated 2017)
